Results: patent US20260070975A1 (SANTA ANA BIO, published 2026)
Changes are numbered by the printed parent chain.

T1: siglec 10 expressed on HEK293 cells (UniProt Q96LC7 17-697, limits assumed)
T1 construct: whole, on cells; also called Siglec-6 family member
T1 sequence (looked up): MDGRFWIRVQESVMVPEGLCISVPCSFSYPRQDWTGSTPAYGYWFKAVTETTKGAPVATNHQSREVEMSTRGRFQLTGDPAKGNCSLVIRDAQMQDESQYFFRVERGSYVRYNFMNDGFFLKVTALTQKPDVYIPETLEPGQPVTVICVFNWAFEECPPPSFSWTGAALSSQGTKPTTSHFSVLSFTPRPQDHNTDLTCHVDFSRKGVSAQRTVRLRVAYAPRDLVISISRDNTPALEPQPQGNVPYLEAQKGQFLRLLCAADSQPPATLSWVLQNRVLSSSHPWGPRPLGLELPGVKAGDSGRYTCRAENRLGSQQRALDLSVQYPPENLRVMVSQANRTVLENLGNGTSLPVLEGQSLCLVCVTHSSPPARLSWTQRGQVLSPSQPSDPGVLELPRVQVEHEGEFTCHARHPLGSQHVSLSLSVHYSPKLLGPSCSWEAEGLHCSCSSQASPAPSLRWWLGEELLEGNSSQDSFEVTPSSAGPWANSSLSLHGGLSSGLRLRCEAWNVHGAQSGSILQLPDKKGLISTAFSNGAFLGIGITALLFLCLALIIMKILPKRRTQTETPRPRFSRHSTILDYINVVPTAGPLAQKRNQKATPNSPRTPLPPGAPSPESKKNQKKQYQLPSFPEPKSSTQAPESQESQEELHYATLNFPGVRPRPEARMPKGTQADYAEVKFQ

T2: siglec 11 expressed on HEK293 cells (UniProt Q96RL6 28-698, limits assumed)
T2 construct: whole, on cells; also called Siglec-6 family member
T2 sequence (looked up): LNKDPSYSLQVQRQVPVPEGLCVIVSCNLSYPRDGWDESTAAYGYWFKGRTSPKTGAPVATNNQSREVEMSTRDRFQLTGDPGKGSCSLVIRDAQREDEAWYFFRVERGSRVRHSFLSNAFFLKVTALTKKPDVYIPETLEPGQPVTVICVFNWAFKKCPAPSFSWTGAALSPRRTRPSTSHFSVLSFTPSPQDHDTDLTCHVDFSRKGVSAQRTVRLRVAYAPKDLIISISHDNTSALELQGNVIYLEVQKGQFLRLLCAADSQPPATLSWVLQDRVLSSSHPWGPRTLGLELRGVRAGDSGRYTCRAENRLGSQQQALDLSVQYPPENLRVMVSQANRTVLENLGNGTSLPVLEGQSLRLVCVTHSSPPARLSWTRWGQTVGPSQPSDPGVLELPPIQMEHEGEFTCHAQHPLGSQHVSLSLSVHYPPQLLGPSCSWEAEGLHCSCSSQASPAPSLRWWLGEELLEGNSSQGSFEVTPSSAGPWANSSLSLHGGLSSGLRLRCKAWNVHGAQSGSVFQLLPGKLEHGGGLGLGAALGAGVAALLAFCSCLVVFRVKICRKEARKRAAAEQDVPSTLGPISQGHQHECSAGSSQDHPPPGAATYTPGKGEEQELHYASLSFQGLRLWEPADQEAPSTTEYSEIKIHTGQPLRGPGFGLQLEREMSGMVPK

T3: siglec 4 expressed on HEK293 cells (UniProt P20916 20-626, limits assumed)
T3 construct: whole, on cells; also called Siglec-6 family member
T3 sequence (looked up): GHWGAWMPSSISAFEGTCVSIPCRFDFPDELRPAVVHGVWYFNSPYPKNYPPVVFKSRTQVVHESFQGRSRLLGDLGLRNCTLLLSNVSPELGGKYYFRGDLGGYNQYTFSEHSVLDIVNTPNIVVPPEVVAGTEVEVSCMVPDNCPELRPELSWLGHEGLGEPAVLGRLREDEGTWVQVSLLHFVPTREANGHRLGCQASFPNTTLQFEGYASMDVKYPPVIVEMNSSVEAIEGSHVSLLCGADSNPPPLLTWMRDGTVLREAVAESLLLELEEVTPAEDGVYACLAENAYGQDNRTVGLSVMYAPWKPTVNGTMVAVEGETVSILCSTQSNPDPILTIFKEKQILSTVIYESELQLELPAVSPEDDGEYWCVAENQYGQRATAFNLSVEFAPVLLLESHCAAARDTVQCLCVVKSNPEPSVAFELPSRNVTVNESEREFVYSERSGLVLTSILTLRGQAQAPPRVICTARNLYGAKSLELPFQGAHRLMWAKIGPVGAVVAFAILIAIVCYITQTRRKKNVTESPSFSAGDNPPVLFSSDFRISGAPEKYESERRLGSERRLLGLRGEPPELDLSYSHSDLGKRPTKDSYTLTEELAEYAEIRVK

T4: siglec 15 expressed on HEK293 cells (UniProt Q6ZMC9 20-328, limits assumed)
T4 construct: whole, on cells; also called Siglec-6 family member
T4 sequence (looked up): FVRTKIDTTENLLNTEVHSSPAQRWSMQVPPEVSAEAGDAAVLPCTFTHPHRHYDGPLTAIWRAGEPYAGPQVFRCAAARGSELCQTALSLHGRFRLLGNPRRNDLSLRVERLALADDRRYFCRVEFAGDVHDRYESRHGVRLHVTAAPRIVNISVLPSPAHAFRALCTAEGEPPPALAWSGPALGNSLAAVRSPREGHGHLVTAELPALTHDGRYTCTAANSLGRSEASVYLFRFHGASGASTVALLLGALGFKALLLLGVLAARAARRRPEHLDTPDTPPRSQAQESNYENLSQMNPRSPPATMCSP

B1: hRND-2 (antibody, human IgG1, kappa, V domains shown)
VH: QVQLVQSGAEVKKPGASVKVSCKASGYAFTSYWMHWVRQAPGQRLEWMGEIYPTNGGTTYAQKFQGRVTMTVDKSTSTAYMELSRLRSDDTAVYYCTIEDFYAMDYWGQGTTVTVSS
VL: DIVMTQTPLSLSVTPGQPASISCKSSQSLLDSDGKTSLNWLLQKPGQSPQRLIYLVSKLDSGVPDRFSGSGSGTDFTLKISRVEAEDVGVYYCWQGTHFPYTFGQGTKLEIKR
notes: also called humanized RND-2; hRND-H2 / hRND-L3; copies: 2 + 2
B2: hRND-5 (antibody, human IgG1, kappa, V domains shown)
VH: B1 VH with V20L, M48I, A61N, Q62E, Q65K, G66R, V68A, M70L
VL: B1 VL
notes: also called humanized RND-5; hRND-H3b / hRND-L3; copies: 2 + 2
B3: hRND-4 (antibody, human IgG1, kappa, V domains shown)
VH: B1 VH with A61N, Q62E, Q65K, G66R
VL: B1 VL
notes: also called humanized RND-4; hRND-H2b / hRND-L3; copies: 2 + 2
B4: hRND-3 (antibody, human IgG1, kappa, V domains shown)
VH: B1 VH with V20L, M48I, V68A, M70L
VL: B1 VL
notes: also called humanized RND-3; hRND-H3 / hRND-L3; copies: 2 + 2

Each binder was assayed against T5, siglec 12 expressed on HEK293 cells (UniProt Q96PQ1 19-595, limits assumed) (assay: flow cytometry on HEK293 cells expressing the target).
T5 construct: whole, on cells; also called Siglec-6 family member
T5 sequence (Q96PQ1 19-595 limits assumed): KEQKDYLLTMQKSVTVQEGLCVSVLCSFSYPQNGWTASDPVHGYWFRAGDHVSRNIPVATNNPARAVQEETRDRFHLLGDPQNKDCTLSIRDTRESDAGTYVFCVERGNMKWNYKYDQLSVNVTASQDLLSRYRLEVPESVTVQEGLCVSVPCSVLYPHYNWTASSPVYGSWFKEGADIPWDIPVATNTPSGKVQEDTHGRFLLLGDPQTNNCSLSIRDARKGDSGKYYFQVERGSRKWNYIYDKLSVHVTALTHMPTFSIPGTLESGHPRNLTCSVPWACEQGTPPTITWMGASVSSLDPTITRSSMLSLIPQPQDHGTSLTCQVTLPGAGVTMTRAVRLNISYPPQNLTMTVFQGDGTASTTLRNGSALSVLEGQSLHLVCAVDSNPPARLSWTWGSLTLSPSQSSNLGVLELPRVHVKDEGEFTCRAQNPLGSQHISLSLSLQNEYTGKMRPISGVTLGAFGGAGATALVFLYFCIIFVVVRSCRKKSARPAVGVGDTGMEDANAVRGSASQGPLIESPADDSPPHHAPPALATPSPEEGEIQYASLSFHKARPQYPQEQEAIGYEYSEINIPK
Description: (§1) Cultured HEK293 cells expressing human siglec-6, cynomolgus siglec-6, or siglec 6 family members were resuspended in FACS Blocking Buffer (PBS+10% normal human serum) for 30 minutes. Following washing, cells were incubated with siglec-6 antibodies in FACS Buffer (PBS+0.5% bovine serum albumin+0.09% sodium azide) and incubated at 4° C. for 30 minutes, washed and incubated with PE-labeled anti-human secondary antibody. Cells were incubated at 4° C. for 30 minutes in the dark. Following washing, cytofluorimetric analysis was conducted using a BD FACS Symphony A3 (BD Biosciences). Cells were sorted by scatter properties and separated for single cell analysis using side scatter width vs side scatter area. Antibody binding to cells was quantitated by measuring fluorescent emissions of excitation wavelength of 561 nm using a 586/15 nm filter. Data analysis was performed using FlowJo Software.

binding result	Binder
no binding	B1
no binding	B2
no binding	B3
no binding	B4

What follows are binders tested against T6, siglec 3 expressed on HEK293 cells (UniProt P20138 18-364, limits assumed) in the same assay as above.
T6 construct: whole, on cells; also called Siglec-6 family member
T6 sequence (P20138 18-364 limits assumed): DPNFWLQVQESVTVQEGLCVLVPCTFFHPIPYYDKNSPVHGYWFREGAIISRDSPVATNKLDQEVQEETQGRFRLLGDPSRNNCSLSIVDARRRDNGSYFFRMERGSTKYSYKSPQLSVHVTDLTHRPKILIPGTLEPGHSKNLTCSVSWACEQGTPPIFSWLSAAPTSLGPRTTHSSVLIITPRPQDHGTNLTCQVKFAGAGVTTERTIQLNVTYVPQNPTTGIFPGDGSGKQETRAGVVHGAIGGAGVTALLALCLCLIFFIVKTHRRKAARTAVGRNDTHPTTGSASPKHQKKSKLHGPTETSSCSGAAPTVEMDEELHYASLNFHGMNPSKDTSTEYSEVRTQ
Description: as §1

binding result	Binder
no binding	B1
no binding	B2
no binding	B3
no binding	B4

What follows are binders tested against T1, siglec 10 expressed on HEK293 cells in the same assay as above.
Description: as §1

binding result	Binder
no binding	B1
no binding	B2
no binding	B3
no binding	B4

Each binder was assayed against T2, siglec 11 expressed on HEK293 cells in the same assay as above.
Description: as §1

binding result	Binder
no binding	B1
no binding	B2
no binding	B3
no binding	B4

The binders below were run against T7, siglec 9 expressed on HEK293 cells (UniProt Q9Y336 18-463, limits assumed) in the same assay as above.
T7 construct: whole, on cells; also called Siglec-6 family member
T7 sequence (Q9Y336 18-463 limits assumed): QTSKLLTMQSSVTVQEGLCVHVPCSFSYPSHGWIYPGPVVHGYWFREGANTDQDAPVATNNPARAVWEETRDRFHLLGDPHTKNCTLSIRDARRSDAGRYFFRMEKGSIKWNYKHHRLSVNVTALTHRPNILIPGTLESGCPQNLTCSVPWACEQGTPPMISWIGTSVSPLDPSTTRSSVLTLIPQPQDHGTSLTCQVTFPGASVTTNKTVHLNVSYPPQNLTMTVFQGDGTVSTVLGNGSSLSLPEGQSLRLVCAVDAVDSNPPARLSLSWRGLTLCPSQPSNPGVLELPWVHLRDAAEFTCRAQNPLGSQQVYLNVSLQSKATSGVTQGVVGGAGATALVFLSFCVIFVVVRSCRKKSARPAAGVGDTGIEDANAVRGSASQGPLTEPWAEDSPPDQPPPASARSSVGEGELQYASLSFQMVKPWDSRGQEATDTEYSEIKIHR
Description: as §1

binding result	Binder
no binding	B1
no binding	B2
no binding	B3
no binding	B4

Each binder was assayed against T3, siglec 4 expressed on HEK293 cells in the same assay as above.
Description: as §1

binding result	Binder
no binding	B1
no binding	B2
no binding	B3
no binding	B4

Each binder was assayed against T4, siglec 15 expressed on HEK293 cells in the same assay as above.
Description: as §1

binding result	Binder
no binding	B1
no binding	B2
no binding	B3
no binding	B4
